According to the NTF2 design screens of Basanta et al. (2020):

Assay: protease stability score; higher = more stable; yeast display proteolysis, trypsin and chymotrypsin;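 note: relative to predicted unfolded state with 0 unfolded-like and 1 meaning tenfold more protease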

Sequence	protease stability score
SEEEEDARRAFEMWFRVLMTGDEDQVDRLMDPHVRVDINGVDLHGRTTIRRLIHEEFNRADVRSFDVEHVDYQGDWVRLEVRLILVFNGKRLELKMELISRKINGRWILESQVVE	1.39
SEEEEDARRMMEILIKTLKTGDWRTIRRLVDPNVRVDFNGVDDHGRENWLKHVLHIRFKRIYIRDVRVYDGRVHIHGEINIEFDGRSDHYEVEIHIDKVDGRWVITHILIV	2.26
SEEEEDIRKFLEDHHRAFATGDEKRLTELMDPNVRFDVNGVDRHGRELAVEMLHKQREEMGIDHLETIEMQDHEVYGDYIHLDVEVHIRVNGKRHILKRRILWLKINGRWTIKHEQLR	0.464
SEEEEDIRRLEEMLTKNLLTGNEHKLRRLADPHVQIHINGVDIVGMEWMVQVRREMRVEHVDSRIDDVRVIGDKAEVDGTLIIVGEVDGQRTNETIRIHRVFEKVNGRWILHSETFI	1.15
SEEEEDLKTMSDFVLHLFETGDEDIFNHFADPDARLHIGDKIAHGREHFKRVFEDLMHRLGVDHIEIRRRSITIIGDKVHAHVDGLTVIGDKVHHVELRFVIVKYNGRWFLKRVEVHNR	1.71
SEEEEDMRKAHEFVDKLIHTGDEDETRRYADPNVLVTINGRRWVGRDDYVEVLREILHRADHVHLHEKSIRIVDGVVQINSNLFIKQGDKEIHLDIRFHIRKVNGRWDMKRMEIR	1.64
SEEEEDRRIAVEEMLRYWHTGDEEDLNRLFDPNVRADFNGKDLVGREHMKEHYERLGYDKFDVRVKDVRVIGDKVEMDGHLRFDGVERDLHIFVIKVNGRWLVKHTEYR	0.904
SEEEEDSLIAWKLYFEIEQTGDEKSLEHYMDPDTRYSQGEFRMHGREYTYHIIFRNRKRLGWDRVEVRLHSYEIINGRIKLDMRVHVNGVDINLLVIAFKFNGKWTIETVRIE	1.36
SEEEEDTERALRLELNLLMTGDEEQFWKNMDPHVRTHFNGQERHGREYATHVLRQLGVKHVRLHDVRIIGDKIDIDMRTNVDGRIFRVHIHSEKVNGRWHIHEFFIE	1.07
SEEEEDTERAMELAHHLLFTGNWEIMLKLFDPHMRLEFNGVDNHGREQVIREIRERIKLLGITNIELEPEEVRVQGDKVILHSRVDYNGKHYETEFVAEKVDGRWFIRSMRYE	1.3
SEEEEDVRIALLMLEHTMRTGDEEDTREMADPNVRVEVGDKELHGRELYVEWFHRLGVKHFDIREVRFIGDKVNIRGISHVNGRNYHVVLHARKIDGRWHLTLWEMR	1.41
SEEEEDVRKFVHMLMLSFITGDWKMLWEMLDPEVRLHVGDKTIIGRERFVSFMQRLLRELRIKDFHVDSIEIQGEKAIIHTTLHIVIGEKEEDRYVRYIVIKIDGRWLIHRVHIH	2.74
SEEEEEADRLEEHWVKSLLTGDEEELAKNADPNTRLDIDGKIVHGMEHFIRFFSEIFKRVDHTEIRIRDSKFDGDKIHNRVEILIRFNGRTIRIDVRIIMRKVDGRWIHESMHIE	1.9
SEEEEEAERAIKLWIHNVLTGDEDSLTKLLDPHVKIIDYVNGVEINNHGREWVKHWLEHLRYDIIRIHEFRSQGDKVHVDGKSEGNYNGKHVETRVMFHLHVYNGVIKSVHIIHI	1.63
SEEEEEAERIYRNWLHNLHTGNEESERLMADPDVRYEINGVERVGWEEVHHFLREIRVHLRHVEIKHSDLINGRAHIEGHVDMEVRVNGVTMRIRTDTILRVVVIDGRLKSVSQEIL	0.648
SEEEEEAHKFIEDWRTALETGDFDSIKELIDPNVRLHIGDKDLVGREEWVRELRRRKERYKGLRLKVHIKHVDIFDGRLIVDAEIRIDIGDKHLHYRVHIFVHKVNGRWQMKRYEEE	2.57
SEEEEEAHRYQEEWKRVHRTGDEDRFRELMDPNVRIHLNINGKNIHLHGRQLAVDFLRHIHLHWRDHEIHTHDIRHFNGVTHVTGRLDGEVNGRRIDTHVEFHHHVFNGRIKSIIIIVH	1.33
SEEEEEAQRFFEEWSKSWVTGDEDLTLHLLDPNVKVDIGDKVYHGRESYLELLHLILREARVHSFHMHRLEVIGEKANIDSRVDHEVGDKRDTVHMNMIVVKINGRWILKSIQIK	2.58

Sequence	protease stability score
SEEEEEARDILKMLFTALDTGNEEYFLNLIDPNVRISVGNYTIVGREQWTEHMRRVKNMQIDDISIKDIKFQGELLRIHGHLVGRFDGQHSHFHVDIIFRKVNGQWHQKEIIIK	1.99
SEEEEEARKAFDDFYKSLETGDEEDLSKMIDPHVRIDINGREVHGREYAQTFWRDLIEKVKNLTLHLRDFRVIDGRLHSKMEIHQGEFHTEVNIHSKKINGRWLVQTFEFR	1.84
SEEEEEARKFSEDLIRSTRTGDEKAWNDLLDPDVRIDINGKTHHGREEFLKLLQHLRERADHWRIELKHTDVYDGKVHHDIHVQISVGDKTFHHRIHLIVVKIDGKWLLKRVDVR	2.16
SEEEEEAWRSTEKWTHSEKTGDFESLLRLADPNARVHVNGRELVGMETVIRRFIEHVERFKNIRIQHHTEHIEFYGDKVIIDSRLHISIGDKTITITIELVTTKFNGRWLLQEITIK	0.475
SEEEEEFRERLRILYEKLLTGDWRFFLKLADPNVRSIIDGRTWIGRDEFETAMRKFDEDLGFDHTHIRHYHIQGEKVQIHFEVRQGDKRITVEINLVIVNGRYKFVELRLSIH	1.4
SEEEEEFRRAVEFIERTIQTGDERILRELADPHVRLEIGDKHDHGRERVVEIWVSIFEKFKNARWEIRDVKVIDGKIYIDGSLIIDGKEHQTLIVSEKVNGRWHLKSIHIH	2.17
SEEEEEHEELMRLMESTVRTGDFELFEKLADPNVRINIDGKDVHGREEFLEHWVRRWRDLGVNHLRIEHRRVYNGVIIIKVKILVNGREITLHIEARKVDGRWSVHKVEQH	2.25
SEEEEEIEKMVRHMIHNLLTGNEDVIDKFVDPHVQLHINGRDIHGRENIRREIRRTLEELGVDHWIVHHIEIRRVGDKAIAINHGTIVINGRNVDTEFIFWLHKVNGRWMVHSYEIRIR	1.4
SEEEEEIERMFKDWSRAVRTGDEERYDHLADPNVRIHIGDKDVHGRENFIKYLHHIRIRDVRLRDFRIYDGRVELDIEVDRHVNGRDDRTQVIMVLLKFNGQWHVESVYVK	1.2
SEEEEEIERYVQHLVHNILTGDWEMIQELADPNAKIDIDGRHFHGREQFVDLMLRLIESLGIDHLRLTHVRIQGDYMELHVEVHVGDKRVELESFATKIDGRWFVKSFTKR	1.97
SEEEEEIKTWTDLFINLWMTGDFHTLVHLLDPNVKAEIDGVDVHGRESVEKMLRIFIKRLGADHSDVRDSSIVNGRLDIELESDVNGRIRTIDIHVLIINGRVKSLKVDIR	2.46
SEEEEEIRRTIEMLLKAWQTGDEEFWMRLFDPHYRFEINGKVYHGREVMRLERRRIDYIHRVEYRIDHIDTQGDKVIIRFTLHLDVEFDGVRTELHEHRVIIIEKVNGQWRLKSVEIE	1.46
SEEEEELKKFLDIFLRALRTGDFDESLRLMDPRYRSIVGDKRHIGMENLYRWLTEMRIERVHFELDSFRIQGNKLEIDIRNDVDGQIDGKQFRIEFEVHIHMEKYNGKWVVHVLEIR	0.932
SEEEEELKRALKIIIEVMLTGDEKTHHELADPHARLEIHQGNYIEHQHGREIVDKVLRDWIEKLGIDHLHLERVDKQGNKLFVHVHVKVGDKHSKLDIVASKVDGRWVLHEVRIIDE	1.84
SEEEEELRIANELVKRSLDTGDEDLERELADPNTRVNYGDKILHGRHEVVRWLRRIDHIHVHWRDVRIYNGRIEMDGRLVLRVGDKSFSLETRIYMEKVDGQWVIKDHEIR	0.314
SEEEEELTKWKKILEEALKTGDWRLIEELFDPHVRFIINGRHIHGMEVRLKEQEELGVNHESQELRDKHIEHQGDKVVINGHLNKIVFVNGKDLHDRYDIIFIYTKINGRWYVKRMIVN	0.502
SEEEEEMEKVAKRWFWAVLTGNEDELHELLDPEAKSDVNGRDTHGREEVVRLMTEHVEKLGVDHVKVHDVKIQGNKFHFDGILIFNGVTVHSRVELDLINGKVHYMSIKLQ	1.1
SEEEEEMERILKYIFRLLTTGNWKELTDNLDPDVRIIIGDKTLIGREEFQRKFKDDHDKFKNMRLEIKDSHMQGDKIIIHLQVDIGDKHFEVIIYVVKINGRWHLKTLEIR	2.09
